Experimental data: PMC6959235, “A mosquito salivary protein promotes flavivirus transmission by activation of autophagy” (Nature Communications, 2020)

Target: recombinant LRPPRC protein purified from 293F cells (human, UniProt P42704 60-1394)
Experiment: ELISA
Details: both partners purified

B1: Aedes aegypti venom allergen-1 (AaVA-1), recombinant, from Drosophila S2 cells (natural protein)
chain: NYCDQSLCRRGPHVACNAPTQFGSACGQEPKFVKMDARMKNLLLKKHNELRAEIACGKHGFPQAARMPTLVWDDELAHIASFNARKCIFAHDKCRNTREFKFAGQNLAITAFAGYNFQAADRAENFTQEWFNEHKDCPKSYVDSYPMSHSGPQIGHFTQMVNDRAWKMGCSMVHYKNGRVIKYYLVCNYSMTNMIEEPIYTRGSAGSKCQTGQNPQYRGLCSPREKVRSESYRG
notes: also called AAEL000793; purified AaVA-1
binding result: binds
